From US20110086770A1
Each block holds one binder with its values, some of them ahead of it.

Key:
[1] = molecular target: T1, recombinant human DR 4 receptor Fc fusion protein (R&D Systems) (human); assay: SPR (Biacore), captured DR4/Fc
T1 sequence (O00220 whole entry, looked up): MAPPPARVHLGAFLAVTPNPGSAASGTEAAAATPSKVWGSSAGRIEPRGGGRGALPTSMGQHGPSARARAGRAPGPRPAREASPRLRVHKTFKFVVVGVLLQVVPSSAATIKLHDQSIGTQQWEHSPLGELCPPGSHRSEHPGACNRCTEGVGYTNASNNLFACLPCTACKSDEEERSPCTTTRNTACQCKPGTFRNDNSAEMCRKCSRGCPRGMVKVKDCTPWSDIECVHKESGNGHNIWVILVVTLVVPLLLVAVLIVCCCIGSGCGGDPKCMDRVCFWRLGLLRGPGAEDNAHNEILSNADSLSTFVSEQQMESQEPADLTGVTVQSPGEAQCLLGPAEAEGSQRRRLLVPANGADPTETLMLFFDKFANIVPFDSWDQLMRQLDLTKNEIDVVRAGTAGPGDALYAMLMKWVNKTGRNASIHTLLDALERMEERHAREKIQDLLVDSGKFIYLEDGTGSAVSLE

[2] = molecular target: recombinant human DR 5 receptor Fc fusion protein (R&D Systems) (human); assay: SPR (Biacore), captured DR5/Fc
Sequence of recombinant human DR 5 receptor Fc fusion protein (R&D Systems) (human) (O14763 whole entry, the tested form may be a part): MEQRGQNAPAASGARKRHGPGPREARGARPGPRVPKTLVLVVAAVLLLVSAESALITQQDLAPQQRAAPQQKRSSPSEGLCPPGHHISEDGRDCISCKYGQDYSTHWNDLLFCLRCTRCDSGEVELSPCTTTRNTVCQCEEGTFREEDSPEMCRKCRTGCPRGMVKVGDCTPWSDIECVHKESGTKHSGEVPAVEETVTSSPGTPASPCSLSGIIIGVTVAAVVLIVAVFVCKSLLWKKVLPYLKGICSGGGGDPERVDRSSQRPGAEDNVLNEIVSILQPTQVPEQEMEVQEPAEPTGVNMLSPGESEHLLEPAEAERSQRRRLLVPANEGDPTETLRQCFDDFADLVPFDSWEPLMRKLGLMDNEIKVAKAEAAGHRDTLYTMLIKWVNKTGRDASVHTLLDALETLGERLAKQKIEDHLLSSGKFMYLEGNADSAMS

Ka [1]: 6.58e+06 M⁻¹
Kd [1]: 152 nM
koff [1]: 0.00185 s⁻¹
kon [1]: 12200 M⁻¹ s⁻¹
B1: 014-42.3D10 ATRIMER (designed binder, part only; not given: nothing essential, part only)
chain, part: EPPTQKPKKIVNAKKDVVNTKMFEELKSRLDTLAQEVALLKEQQALQTVCLKGTKVHMKCFLAFTQTKTFHEASEDCISRGGTLSTPQTGSENDALYEYLRQSVGNEAEIWLGLNVDMTGARIAYKNWETEITAQPCAVLSGAANGKWFDKRCRDQLPYICQFGIV

Ka [1]: 1.11e+08 M⁻¹
Kd [1]: 9.01 nM
koff [1]: 0.00101 s⁻¹
kon [1]: 112000 M⁻¹ s⁻¹
B2: 014-42.3B8 ATRIMER (designed binder, part only; not given: nothing essential, part only)
chain, part: B1 chain, part

Ka [2]: 1.74e+08 M⁻¹
Kd [2]: 5.74 nM
koff [2]: 0.000362 s⁻¹
kon [2]: 63000 M⁻¹ s⁻¹
B3: 4a8c (=A3C) DR 5 ATRIMER (designed binder, from a related filing, part only)
chain: EPPTQKPKKIVNAKKDVVNTKMFEELKSRLDTLAQEVALLKEQQALQTVCLKGTKVHMKCFLAFTQTKTFHEASEDCISRGGTLSTPQTGSENDALYEYLRQSVGNEAEIWLGLNRATLRPRWVDMTGARIAYKNWETEITAQPDGGKNCAVLSGAANGKWFDKRCRDQLPYICQFGIV
